Laboratory results taken from US20230364014A1, “SELF-ASSEMBLED GELS FOR CONTROLLED DELIVERY OF BIOLOGICS AND METHODS OF MAKING THEREOF” (Alivio Therapeutics, Inc., priority 2018, published 2023).

Experiments:
[1] = cited from earlier work
[2] = pKa / isoelectric point and pH-dependent loading into AP microfiber suspensions; format: physicochemical; details: FIG. 4
Description: Agent loading level can also be pH and/or charge-dependent and loading of the agent(s) may be controlled and/or optimized based using the pKa and isoelectric (pI) point of the agent. […] Accordingly, agent loading and encapsulation efficiency may be optimized/maximized by loading gel suspensions at a pH above the pKa of the gelator(s) and a pH which is below the isoelectric (pI) point of the agent(s) which are being loaded onto the gel.

[3] = Encapsulation efficiency in self-assembled AP microfibers versus non-assembled AP powder suspension (Coomassie Assay); format: physicochemical; details: 10 mg/mL AP mixed with equal volume of 2 mg/mL mAb in PBS, 22° C. for 2 hours, FIG. 5
Description: Ascorbyl palmitate (AP) microfiber suspensions were prepared using the self-assembly process described in Example 1 or, alternatively, using a non-assembled AP particulate used as-is from the manufacturer (USP grade ascorbyl palmitate, Sigma-Aldrich). […] After loading/incubation at 22° C. for 2 hours, the suspensions were centrifuged at 20,000×g for 10 minutes at 4° C. The supernatant was then removed and tested for soluble protein via the Coomassie Assay to determine the encapsulation efficiency.

TNF-α = target: T1, TNF-α (Homo sapiens, UniProt P01375); test: TNF-α activity assay with fibroblast L929 cells (L929 viability assay); format: cell-based; details: 1 ng/mL TNF-α in 2% serum, compared to IFX and ADA controls, FIG. 2
T1 construct: host or cells: added to murine fibroblast L929 cells
T1 sequence (P01375 77-233 limits assumed): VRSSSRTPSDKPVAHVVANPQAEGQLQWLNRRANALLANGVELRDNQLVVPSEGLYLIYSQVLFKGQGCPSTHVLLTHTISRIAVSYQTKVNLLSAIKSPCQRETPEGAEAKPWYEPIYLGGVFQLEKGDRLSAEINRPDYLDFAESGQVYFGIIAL
Description: Activity was measured using the TNF-α activity assay with fibroblast L929 cells (Gibco cytotoxicity assay for recombinant proteins).

[4] = Time-dependent loading of antibody into ascorbyl palmitate microfibers (HPLC); format: physicochemical
Description: The efficiency of antibody (i.e., IFX or ADA) loading into ascorbyl palmitate microfibers was found be time dependent. […] (and following 3 washes with PBS by centrifugation at 5000 rpm for 10 mins at 4° C.). However, by extending the loading/incubation time to 20 hours (2 hours at 22° C., 18 hours at 4° C.), the loading increased to 14% (wt/wt %).

With `CCCCCCCCCCCCCCCC(=O)OC[C@H](O)[C@H]1OC(=O)C(O)=C1O` [AP, ascorbyl palmitate] as the compound, how does the pKa [1] read?
The pKa was 4.4.

Which results are given for adalimumab?
influence of pH on loading and encapsulation efficiency [2]: highest loading and encapsulation efficiencies are observed at a pH above the pKa of AP but below the pI; encapsulation of antibody, self-assembled AP microfiber suspension relative to non-self-assembled AP powder suspension [3]: greater encapsulation; activity of mAb released from gels against TNF-α (TNF-α): active against TNF-α

Which results are given for infliximab [IFX]?
loading ([4]; after 10 minutes of loading/incubation at 22° C., following 3 washes with PBS): 7 % (wt/wt %); theoretical maximum loading ([4]; calculated from amounts of IFX and AP combined during loading): approximately 16.7 % (wt/wt %); loading ([4]; loading/incubation time 20 hours (2 hours at 22° C., 18 hours at 4° C.)): 14 % (wt/wt %)
